Results on 16 molecules are retold here after publication PMC7083938, “NELL2-Robo3 complex structure reveals mechanisms of receptor activation for axon guidance” (Nature Communications, 2020).

Series [1] deals with the molecule itself. In words: SEC-SAXS; Superose 6 Increase 10/300 in HBS at APS BioCAT beamline 18; molecular weight from the scattering.
Series [2] concerns the molecule itself. The series is described as follows: SEC-MALS; Wyatt HELEOS II coupled to an AKTA FPLC, Superose Increase 6 10/300, HBS; Zimm model. (In general: In gel filtration, larger molecules generally elute earlier.)
Series [3] addresses T1, hRobo3 FN1-3 displayed on S2 cells (human, UniProt Q96MS0 549-870).
T1 construct: human Robo3, FN domains 1-3, P549-L870; also called Robo3FN1-3 WT (Actin 5C, C-terminal FLAG); source: Drosophila S2 cells, transiently transfected, on the cell surface; not shown: FLAG, C-terminal, kept; transmembrane helix of rat Neurexin-1, C-terminal, kept
T1 sequence (looked up): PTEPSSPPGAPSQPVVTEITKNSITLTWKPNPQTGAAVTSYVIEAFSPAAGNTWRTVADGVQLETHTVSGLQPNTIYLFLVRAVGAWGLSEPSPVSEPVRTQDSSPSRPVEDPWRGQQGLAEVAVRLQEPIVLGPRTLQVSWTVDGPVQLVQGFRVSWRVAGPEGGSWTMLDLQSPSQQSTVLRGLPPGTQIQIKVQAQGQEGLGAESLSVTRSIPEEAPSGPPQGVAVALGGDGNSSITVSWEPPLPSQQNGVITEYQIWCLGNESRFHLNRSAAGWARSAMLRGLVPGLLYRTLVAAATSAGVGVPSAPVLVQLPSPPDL
In words: flow cytometry on cells; biotinylated ligand at various concentrations, 30 min at 4 °C in PBS + 0.1% BSA, on Drosophila S2 cells displaying the partner (C-terminal FLAG, rat Neurexin-1 transmembrane helix); Cy5-streptavidin; gated on anti-FLAG positive cells; MFI fit to a single-site model; apparent KD. Particulars: one partner purified. A general note: A flow cytometer gives signals particle by particle.

In series [4] the target is T2, hRobo3 FN1-3, biotinylated (wild type) (human, UniProt Q96MS0 549-870, biotin on the Avi-tag (BirA)).
T2 construct: human Robo3, FN domains 1-3, P549-L870; also called WT hRobo3 FN; Robo3FN1-3 WT; source: High Five cells (baculovirus), purified (Ni-NTA, SEC), biotinylated with BirA
T2 sequence (looked up): T1 sequence (looked up)
The series is described as follows: SPR; biotinylated hRobo3 FN1-3 on an SA chip, Biacore 3000; hNELL1 EGF1-3 or hNELL2 EGF1-3 as analyte; equilibrium isotherms. As to conditions: both partners purified.

The target in series [5] is T2, hRobo3 FN1-3, biotinylated (wild type). The series is described as follows: SPR; as a6 but with additional 10 mM EDTA in all buffers. As to conditions: both partners purified. On the technique in general: SPR reads the build-up and loss of mass on a sensor chip optically.
Series [6] concerns the molecule itself. In words: AUC; sedimentation velocity, concentration series (mRobo3 0.6-20 µM at 200,000 g; mRobo1 0.9-9.8 µM at 140,000 g), 20 °C, c(s) analysis.
The target in series [7] is T3, mRobo3 FN1-3 (mouse, biotin on the Avi-tag (BirA) for SPR).
T3 construct: also called Robo3FN1-3 (Polyhedrin, mouse); source: High Five cells (baculovirus), purified (Ni-NTA, SEC); biotinylated with BirA for SPR; not shown: His6, C-terminal, kept
In words: SPR; biotinylated mRobo3 FN1-3 on a Biacore SA chip; mNELL2 EGF1-6 WT and mutants as analytes over the same channel; 20 s 10 mM EDTA pH 8, 150 mM NaCl between runs; 25 °C, 10 mM HEPES pH 7.2, 150 mM NaCl, 0.05% Tween-20, 0.1% BSA; equilibrium, 1:1 Langmuir. Particulars: both partners purified.

Series [8] concerns the target T2, hRobo3 FN1-3, biotinylated (wild type). In words: SPR; biotinylated hRobo3 FN1-3 on an NLC/neutravidin chip, ProteOn XPR36; hNELL2 EGF1-6 as analyte; 25 °C, 10 mM HEPES pH 7.2, 150 mM NaCl, 0.05% Tween-20, 0.1% BSA; equilibrium responses, 1:1 Langmuir. Particulars: both partners purified.

B1: hNELL2 (full length) (ligand, human, UniProt Q99435 22-816, looked up)
chain: LGVDPSLQIDVLTELELGESTTGVRQVPGLHNGTKAFLFQDTPRSIKASTATAEQFFQKLRNKHEFTILVTLKQTHLNSGVILSIHHLDHRYLELESSGHRNEVRLHYRSGSHRPHTEVFPYILADDKWHKLSLAISASHLILHIDCNKIYERVVEKPSTDLPLGTTFWLGQRNNAHGYFKGIMQDVQLLVMPQGFIAQCPDLNRTCPTCNDFHGLVQKIMELQDILAKTSAKLSRAEQRMNRLDQCYCERTCTMKGTTYREFESWIDGCKNCTCLNGTIQCETLICPNPDCPLKSALAYVDGKCCKECKSICQFQGRTYFEGERNTVYSSSGVCVLYECKDQTMKLVESSGCPALDCPESHQITLSHSCCKVCKGYDFCSERHNCMENSICRNLNDRAVCSCRDGFRALREDNAYCEDIDECAEGRHYCRENTMCVNTPGSFMCICKTGYIRIDDYSCTEHDECITNQHNCDENALCFNTVGGHNCVCKPGYTGNGTTCKAFCKDGCRNGGACIAANVCACPQGFTGPSCETDIDECSDGFVQCDSRANCINLPGWYHCECRDGYHDNGMFSPSGESCEDIDECGTGRHSCANDTICFNLDGGYDCRCPHGKNCTGDCIHDGKVKHNGQIWVLENDRCSVCSCQNGFVMCRRMVCDCENPTVDLFCCPECDPRLSSQCLHQNGETLYNSGDTWVQNCQQCRCLQGEVDCWPLPCPDVECEFSILPENECCPRCVTDPCQADTIRNDITKTCLDEMNVVRFTGSSWIKHGTECTLCQCKNGHICCSVDPQCLQEL
notes: human NELL2, L22-L816; trimer by SAXS; also called NELL2FL (Polyhedrin, human); source: High Five cells (baculovirus), purified (Ni-NTA, SEC)
One may read the stoichiometry N as the number of molecules, sites or subunits per partner or assembly. With B1, the “stoichiometry N” value in series [1] is 3.

B2: full-length human NELL2 (ligand, UniProt Q99435 22-816, looked up)
chain: B1 chain
notes: NELL2, human; called full-length; the methods say that mature domains were cloned into pAcGP67A; Trimer by MALS and SAXS; also called hNELL2; full-length hNELL2; source: High Five cells (baculovirus), secreted, purified (Ni-NTA, SEC)
B2: the “stoichiometry N” value in series [2] was determined as 3.

B3: hNELL2 EGF1-6, biotinylated (wild type) (domain or fragment)
chain: not shown
modifications: biotin on the Avi-tag (BirA)
notes: human NELL2, EGF domains 1-6, G397-T637; also called WT hNELL2 EGF; NELL2EGF1-6 WT; source: High Five cells (baculovirus), purified (Ni-NTA, SEC), biotinylated with BirA
Regarding B3, in series [3], the Kd was found to be 770 nM.

B4: hNELL2 EGF1-6 R452A, biotinylated (domain or fragment)
chain: not shown
modifications: biotin on the Avi-tag (BirA)
notes: human NELL2, EGF domains 1-6, G397-T637; source: High Five cells (baculovirus), purified, biotinylated with BirA (general methods)
Consider B4, for which the Kd in series [3] was determined as 1100 nM.

B5: hNELL2 EGF1-6 D476A, biotinylated (domain or fragment)
chain: not shown
modifications: biotin on the Avi-tag (BirA)
notes: as for B4
Consider B5, for which the Kd in series [3] was around 50000 nM.

B6: hNELL2 EGF1-6 L498A/F500A, biotinylated (domain or fragment)
chain: not shown
modifications: biotin on the Avi-tag (BirA)
notes: as for B4
Regarding B6, the Kd in series [3] was at least 100000 nM.

B7: hNELL2 EGF1-6 R448A/Y450A, biotinylated (domain or fragment)
chain: not shown
modifications: biotin on the Avi-tag (BirA)
notes: as for B4
In the case of B7, the Kd in series [3] was determined as 9000 nM.

B8: hNELL2 EGF1-6 V509A, biotinylated (domain or fragment)
chain: not shown
modifications: biotin on the Avi-tag (BirA)
notes: as for B4
With B8, the Kd in series [3] was 1500 nM.

B9: hNELL2 EGF1-6 D477A/Y478A, biotinylated (domain or fragment)
chain: not shown
modifications: biotin on the Avi-tag (BirA)
notes: as for B4
On to B9, for which the Kd in series [3] is at least 100000 nM.

B10: mouse NELL1 (ligand, UniProt Q2VWQ2 22-810, looked up)
chain: FGMDPDLQMDIITELDLVNTTLGVTQVAGLHNASKAFLFQDVQREIHSAPHVSEKLIQLFRNKSEFTFLATVQQKPSTSGVILSIRELEHSYFELESSGPREEIRYHYIHGGKPRTEALPYRMADGQWHKVALSVSASHLLLHVDCNRIYERVIDPPETNLPPGSNLWLGQRNQKHGFFKGIIQDGKIIFMPNGFITQCPNLNRTCPTCSDFLSLVQGIMDLQELLAKMTAKLNYAETRLGQLENCHCEKTCQVSGLLYRDQDSWVDGDNCRNCTCKSGAVECRRMSCPPLNCSPDSLPVHISGQCCKVCRPKCIYGGKVLAEGQRILTKTCRECRGGVLVKITEACPPLNCSEKDHILPENQCCRVCRGHNFCAEAPKCGENSECKNWNTKATCECKNGYISVQGNSAYCEDIDECAAKMHYCHANTVCVNLPGLYRCDCIPGYIRVDDFSCTEHDDCGSGQHNCDKNAICTNTVQGHSCTCQPGYVGNGTVCKAFCEEGCRYGGTCVAPNKCVCPSGFTGSHCEKDIDECAEGFVECHNHSRCVNLPGWYHCECRSGFHDDGTYSLSGESCIDIDECALRTHTCWNDSACINLAGGFDCLCPSGPSCSGDCPHEGGLKHNGQVWILREDRCSVCSCKDGKIFCRRTACDCQNPNVDLFCCPECDTRVTSQCLDQSGQKLYRSGDNWTHSCQQCRCLEGEADCWPLACPSLSCEYTAIFEGECCPRCVSDPCLADNIAYDIRKTCLDSSGISRLSGAVWTMAGSPCTTCQCKNGRVCCSVDLVCLENN
notes: NELL1, mouse; the methods say that mature domains were cloned into pAcGP67A; Trimer by MALS; also called mNELL1; source: High Five cells (baculovirus), secreted, purified (Ni-NTA, SEC)
As for B10, the “stoichiometry N” value in series [2] stood at 3.

B11: hNELL1 EGF1-3 (domain or fragment, human, UniProt Q92832 390-517, looked up)
chain: RGHNFCAEGPKCGENSECKNWNTKATCECKSGYISVQGDSAYCEDIDECAAKMHYCHANTVCVNLPGLYRCDCVPGYIRVDDFSCTEHDECGSGQHNCDENAICTNTVQGHSCTCKPGYVGNGTICRA
notes: human NELL1, EGF domains 1-3, R390-A517; also called NELL1EGF1-3 (Polyhedrin, human); source: High Five cells (baculovirus), purified (Ni-NTA, SEC)
For B11, the Kd was determined as 460 nM in series [4] and 2710 nM in series [5].

B12: hNELL2 EGF1-3 (domain or fragment, human, UniProt Q99435 397-523, looked up)
chain: GYDFCSERHNCMENSICRNLNDRAVCSCRDGFRALREDNAYCEDIDECAEGRHYCRENTMCVNTPGSFMCICKTGYIRIDDYSCTEHDECITNQHNCDENALCFNTVGGHNCVCKPGYTGNGTTCKA
notes: human NELL2, EGF domains 1-3, G397-A523; also called NELL2EGF1-3 (Polyhedrin, human); source: High Five cells (baculovirus), purified (Ni-NTA, SEC)
With B12, the Kd was 250 nM in series [4] and 790 nM in series [5].

B13: mRobo1 ectodomain (domain or fragment, mouse, UniProt O89026 30-840, looked up)
chain: RIVEHPSDLIVSKGEPATLNCKAEGRPTPTIEWYKGGERVETDKDDPRSHRMLLPSGSLFFLRIVHGRKSRPDEGVYICVARNYLGEAVSHNASLEVAILRDDFRQNPSDVMVAVGEPAVMECQPPRGHPEPTISWKKDGSPLDDKDERITIRGGKLMITYTRKSDAGKYVCVGTNMVGERESEVAELTVLERPSFVKRPSNLAVTVDDSAEFKCEARGDPVPTVRWRKDDGELPKSRYEIRDDHTLKIRKVTAGDMGSYTCVAENMVGKAEASATLTVQEPPHFVVKPRDQVVALGRTVTFQCEATGNPQPAIFWRREGSQNLLFSYQPPQSSSRFSVSQTGDLTITNVQRSDVGYYICQTLNVAGSIITKAYLEVTDVIADRPPPVIRQGPVNQTVAVDGTLILSCVATGSPAPTILWRKDGVLVSTQDSRIKQLESGVLQIRYAKLGDTGRYTCTASTPSGEATWSAYIEVQEFGVPVQPPRPTDPNLIPSAPSKPEVTDVSKNTVTLSWQPNLNSGATPTSYIIEAFSHASGSSWQTAAENVKTETFAIKGLKPNAIYLFLVRAANAYGISDPSQISDPVKTQDVPPTSQGVDHKQVQRELGNVVLHLHNPTILSSSSVEVHWTVDQQSQYIQGYKILYRPSGASHGESEWLVFEVRTPTKNSVVIPDLRKGVNYEIKARPFFNEFQGADSEIKFAKTLEEAPSAPPRSVTVSKNDGNGTAILVTWQPPPEDTQNGMVQEYKVWCLGNETKYHINKTVDGSTFSVVIPSLVPGIRYSVEVAASTGAGPGVKSEPQFIQLDSHGNPVS
notes: mouse Robo1, extracellular domain, R30-S840; C-terminal Avi and His; also called mRobo1 ECD; Robo1ECD; source: High Five cells (baculovirus), purified (Ni-NTA, SEC)
In the case of B13, the “stoichiometry N” value in series [6] amounted to 2.

B14: mNELL2 EGF1-6 D477A/Y478A (domain or fragment)
chain: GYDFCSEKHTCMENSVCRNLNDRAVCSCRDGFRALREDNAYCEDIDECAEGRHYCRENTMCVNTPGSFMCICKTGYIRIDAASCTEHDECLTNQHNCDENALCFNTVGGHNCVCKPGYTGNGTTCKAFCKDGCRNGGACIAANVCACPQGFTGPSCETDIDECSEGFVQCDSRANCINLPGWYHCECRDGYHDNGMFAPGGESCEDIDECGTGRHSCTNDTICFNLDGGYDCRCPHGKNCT
In series [7], B14 displayed a Kd of at least 100000 nM.

B15: hNELL2 EGF1-6 (His-tagged) (domain or fragment)
chain: not shown
notes: human NELL2, EGF domains 1-6, G397-T637; also called NELL2EGF1-6 (Polyhedrin, human); source: High Five cells (baculovirus), purified (Ni-NTA, SEC)
Molecule B15 returned a Kd in series [8] of 579 nM.

B16: mNELL2 EGF1-6 L498A/F500A (domain or fragment)
chain: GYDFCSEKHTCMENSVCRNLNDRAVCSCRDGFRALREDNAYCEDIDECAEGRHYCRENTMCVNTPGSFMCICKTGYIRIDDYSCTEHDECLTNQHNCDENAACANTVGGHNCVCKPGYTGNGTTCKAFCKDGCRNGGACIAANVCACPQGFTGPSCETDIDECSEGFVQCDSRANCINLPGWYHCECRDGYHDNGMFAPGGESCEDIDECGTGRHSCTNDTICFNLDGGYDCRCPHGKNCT
With B16, the Kd in series [7] is at least 100000 nM.
